One molecule from patent US20170157149A1 (REGENTS OF THE UNIVERSITY OF MICHIGAN, published 2017) can be followed below.

No end group written: not given here.

The target of this assay is T1, scavenger receptor class BI (SR-BI) (UniProt Q8WTV0 1-552, limits assumed).
T1 sequence (looked up): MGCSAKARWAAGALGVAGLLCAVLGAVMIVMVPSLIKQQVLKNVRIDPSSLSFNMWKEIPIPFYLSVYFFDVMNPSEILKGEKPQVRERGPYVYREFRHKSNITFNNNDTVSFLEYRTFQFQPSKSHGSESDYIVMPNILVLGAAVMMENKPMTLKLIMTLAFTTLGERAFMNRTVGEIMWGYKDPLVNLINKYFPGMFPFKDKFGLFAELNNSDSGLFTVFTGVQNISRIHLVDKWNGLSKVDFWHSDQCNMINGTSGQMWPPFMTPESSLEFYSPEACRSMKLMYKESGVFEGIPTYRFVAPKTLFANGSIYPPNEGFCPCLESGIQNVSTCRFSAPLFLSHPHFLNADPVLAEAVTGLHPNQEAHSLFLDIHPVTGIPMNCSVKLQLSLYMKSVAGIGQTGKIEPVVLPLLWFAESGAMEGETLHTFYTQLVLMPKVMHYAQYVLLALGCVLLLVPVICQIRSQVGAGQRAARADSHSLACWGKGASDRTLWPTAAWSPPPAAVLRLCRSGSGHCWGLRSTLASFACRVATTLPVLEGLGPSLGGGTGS
The assay is described as follows: cell-based or functional assay.

B1: DIO labeled HDL nanoparticles (synthetic HDL of 22 A peptide and lipids) (other)
peptide: PVLDLFRELLNELLEALKQKLK
modifications: also: sHDL lipid nanoparticle with lipids, DIO tracer label in particle, acetate salt
Consider B1, for which the “blocking of uptake of DIO labeled HDL nanoparticles by 10 fold excess of HDL (fluorescence microscopy)” value is greater than 90%.
